Numbering of substitutions follows the chain as printed.
Legend:
[1] = molecular target: T1, human serum albumin (human, UniProt P02768 25-609); assay: BIAcore 2000, HSA immobilised on CM5 chip, 40-220 nM ABDwt
T1 construct: Amine-coupled to a CM5 chip, coupled to Sepharose, or loaded in solution onto the ABD columns; also called HSA

[2] = molecular target: T1, human serum albumin; assay: Biacore 2000, HSA immobilised on a CM5 chip, analyte at 200 nM, 20 µl/min
[3] = molecular target: T1, human serum albumin; assay: BIAcore 2000, HSA immobilised on CM5 chip, 200-600 nM ABDmut

B1: wild type Albumin Binding Protein (ABD) (other)
chain: MKAIFVLNAQHDEAVDANSLAEAKVLANRELDKYGVSDYYKNLINNAKTVEGVKALIDEILAALP
notes: Expressed in E. coli from pTrpABDT1T2; also called ABDwt; unmutated protein
Ka [1]: 6.9e+07 M⁻¹ | koff [1]: 0.0013 s⁻¹ | kon [1]: 90000 M⁻¹ s⁻¹

B2: ABDmut54-57-58 (designed binder)
chain: B1 chain with N28L, N42D, N45D, N46K, K54A, I57A, D58A
notes: also called 54-57-58 A; ABDmutS4-57-58
binding result [2]: binds

B3: ABDmut (Asn28Leu, Asn42Asp, Asn45Asp, Asn46Lys variant of ABD) (designed binder)
chain: B1 chain with N28L, N42D, N45D, N46K
notes: Expressed in E. coli from pTrpABDmutT1T2; also called ABDstab; mutated ABD
Ka [3]: 1.5e+07 M⁻¹ | koff [3]: 0.0012 s⁻¹ | kon [3]: 18000 M⁻¹ s⁻¹

B4: ABDmut22-25-26 (designed binder)
chain: B1 chain with E22A, V25A, L26A, N28L, N42D, N45D, N46K
notes: also called 22-25-26 A; triple mutant of ABDmut
binding result [2]: binds
